Measurements as given in patent US20220396632A1 (VERSEAU THERAPEUTICS, published 2022).
Non-standard residues stand in square brackets, D forms with d. No end group written: not given here. *: point of attachment. Biotin = O=C1N[C@H]2[C@H](CS[C@H]2CCCCC(=O)*)N1; sY = N[C@@H](Cc1ccc(OS(=O)(=O)O)cc1)C(=O)O

T1: Scrambled Y42,52,63(SO3) PSGL-1(42-62) biotin peptide (sulfotyrosine at peptide positions 1, 11 and 22; C-terminal Lys-biotin)
T1 peptide: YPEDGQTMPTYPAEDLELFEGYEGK

T2: Biotin Y46,48,51(SO3) PSGL-1(42-62) peptide (human, sulfotyrosine at Y46, Y48 and Y51; C-terminal Lys-biotin)
T2 construct: also called fully sulfated N-terminal PSGL-1 peptide
T2 peptide: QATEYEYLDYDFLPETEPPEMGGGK

T3: Biotin PSGL-1(42-62) peptide, unmodified (human, C-terminal Lys-biotin)
T3 construct: Residues 42-62 followed by GGGK-biotin; also called WT; wild-type
T3 peptide: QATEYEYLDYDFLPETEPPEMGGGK

T4: Recombinant human PSGL-1(ECD)-hFc1 (R&D Systems, Cat. 3345-PS) (human, UniProt Q14242 42-305)
T4 construct: Bought; Gln42-Val295 counted on AAC50061; also called PSGL-1-Fc; PSGL-1-hFc1 chimera; not shown: human IgG1 Fc, Pro100-Lys330
T4 sequence: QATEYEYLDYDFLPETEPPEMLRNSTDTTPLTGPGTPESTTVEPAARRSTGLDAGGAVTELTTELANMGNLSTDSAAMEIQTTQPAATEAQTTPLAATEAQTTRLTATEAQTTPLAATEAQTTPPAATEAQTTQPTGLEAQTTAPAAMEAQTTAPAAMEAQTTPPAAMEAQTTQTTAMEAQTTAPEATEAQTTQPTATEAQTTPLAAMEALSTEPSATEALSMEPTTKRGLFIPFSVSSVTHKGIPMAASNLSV

T5: SulfoTyr C4 peptide (not fully specified; Y4, Y7 and Y9 sulfated (SO3); C-terminal biotin)
T5 construct: also called C4 alpha chain peptide; human sulfotyrosinylated C4 peptide
T5 peptide: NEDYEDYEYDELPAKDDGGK

T6: Human fibrinogen protein (ThermoFisher, RP-43142) (human, UniProt P02671 20-629; P02675 31-491; P02679 27-453, limits assumed, natural sulfotyrosines)
T6 construct: mature; Native dimer with 3 pairs of non-identical chains; also called gamma-fibrinogen; γ fibrinogen protein
T6 sequence (looked up) 1: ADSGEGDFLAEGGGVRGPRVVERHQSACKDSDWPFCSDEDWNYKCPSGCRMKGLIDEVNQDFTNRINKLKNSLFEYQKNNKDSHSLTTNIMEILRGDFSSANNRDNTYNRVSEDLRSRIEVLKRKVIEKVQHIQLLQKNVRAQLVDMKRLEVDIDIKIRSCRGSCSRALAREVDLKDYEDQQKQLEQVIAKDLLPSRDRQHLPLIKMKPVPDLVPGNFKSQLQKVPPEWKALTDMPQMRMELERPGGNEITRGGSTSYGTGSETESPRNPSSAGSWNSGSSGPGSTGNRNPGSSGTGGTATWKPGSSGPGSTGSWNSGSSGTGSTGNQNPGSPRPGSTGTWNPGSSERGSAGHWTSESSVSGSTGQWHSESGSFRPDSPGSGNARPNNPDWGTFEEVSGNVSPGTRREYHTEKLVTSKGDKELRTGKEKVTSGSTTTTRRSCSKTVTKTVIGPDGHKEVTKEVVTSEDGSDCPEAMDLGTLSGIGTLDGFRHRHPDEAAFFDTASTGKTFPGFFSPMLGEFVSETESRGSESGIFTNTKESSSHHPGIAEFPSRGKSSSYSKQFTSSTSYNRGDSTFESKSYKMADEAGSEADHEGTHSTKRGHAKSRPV
T6 sequence (looked up) 2: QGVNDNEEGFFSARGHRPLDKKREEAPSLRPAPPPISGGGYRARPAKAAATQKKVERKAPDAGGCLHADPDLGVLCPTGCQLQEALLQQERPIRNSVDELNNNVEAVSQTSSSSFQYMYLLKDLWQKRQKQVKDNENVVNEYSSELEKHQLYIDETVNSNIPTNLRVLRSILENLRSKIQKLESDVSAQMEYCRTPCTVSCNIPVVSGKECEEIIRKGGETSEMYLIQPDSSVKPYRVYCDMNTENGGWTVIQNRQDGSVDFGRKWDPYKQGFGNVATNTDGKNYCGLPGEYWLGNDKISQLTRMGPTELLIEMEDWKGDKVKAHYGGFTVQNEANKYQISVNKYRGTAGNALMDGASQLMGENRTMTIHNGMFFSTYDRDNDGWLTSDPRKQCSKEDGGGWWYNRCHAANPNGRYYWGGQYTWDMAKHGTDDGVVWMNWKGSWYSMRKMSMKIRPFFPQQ
T6 sequence (looked up) 3: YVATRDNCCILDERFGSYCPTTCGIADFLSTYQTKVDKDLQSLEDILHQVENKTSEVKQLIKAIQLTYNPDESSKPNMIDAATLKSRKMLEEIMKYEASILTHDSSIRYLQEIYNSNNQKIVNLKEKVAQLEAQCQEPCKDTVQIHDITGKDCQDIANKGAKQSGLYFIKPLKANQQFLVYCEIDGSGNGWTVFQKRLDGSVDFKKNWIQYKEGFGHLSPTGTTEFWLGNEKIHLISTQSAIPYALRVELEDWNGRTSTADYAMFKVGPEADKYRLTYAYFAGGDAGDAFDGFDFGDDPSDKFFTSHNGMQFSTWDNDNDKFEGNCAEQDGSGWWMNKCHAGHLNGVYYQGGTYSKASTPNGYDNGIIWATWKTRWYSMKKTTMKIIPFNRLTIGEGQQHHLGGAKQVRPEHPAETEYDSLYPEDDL

T7: Sulfotyrosine D6 biotin peptide (human)
T7 construct: also called D6 peptide
T7 peptide: ENSSFY[sY][sY]D[sY]LDEVAFGGK(Biotin)

T8: Sulfotyrosine CCR2b biotin peptide (human)
T8 construct: also called CCR2b peptide
T8 peptide: TTFFD[sY]D[sY]GAPSHGGK(Biotin)

T9: SulfoCCK biotin peptide (human)
T9 construct: also called sulfotyrosine CCK peptide
T9 peptide: SHRISDRD[sY]MGWMDFGGK(Biotin)

T10: Sulfotyr fibrinogen γ peptide (not fully specified; Y8 and Y12 sulfated (SO3); C-terminal biotin)
T10 construct: also called Fibrinogen gamma peptide; human sulfotyrosinylated fibrinogen peptide
T10 peptide: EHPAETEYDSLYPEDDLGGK

B1: 01A11 (antibody, IgG4, V domains shown)
VH: EVKLLESGGGLVQPGGSLRLSCATSGFSFSDYWMSWVRQAPGKGLEWVASIKKDGSEKYYVDSVKGRFTISRDNAKNSLYVQMNSLRAEDTAIYYCVVFGAWGPGTLVTVSS
VL: DIVMTQTPLSLPVTLGQPASISCRSGRSLVYSDGNTYLNWFQQRPGQSPRRLIYKVSNRDSGVPDRFSGGGSGTDFTLKISRVEAEDVAIYYCMQGTHWPPTFGQGTKLEIK
B2: 01E01 (antibody, V domains shown)
VH: EVQLVQSGGGVVQPGRSLRLSCAASGFTFSSYGMHWVRQAPGKGLEWVAVISYDGSNKYYADSVKGRFTISRDNSKNTLYLQMHSLRAEDTAVYYCANLVGTTNSWGQGTLVTVSS
VL: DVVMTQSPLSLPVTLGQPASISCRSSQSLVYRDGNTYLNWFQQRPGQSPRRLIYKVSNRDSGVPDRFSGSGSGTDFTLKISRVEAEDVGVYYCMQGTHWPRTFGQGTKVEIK
B3: 09B09 (antibody, IgG4, V domains shown)
VH: EVKLLESGGGLVQPGGSLRLSCAASGITFSTYAMMWVRQAPGKGLEWVSGISGSGASRYYADSVKGRFTISRDNSKNMLYLQMNSLRAEDTAVYYCAKKVLGRRKQYFDDWGQGTLVTVSS
VL: DIVMTQSPLSLPVTPGEPASISCRSSQSLLHSNGYNYLDWYLQRPGQSPQLLIYLGSHRASGVPDRFSGSGSGTEHTLKITTVAAEDVGVYYCMQALQSPPTFGQGTRLDIK
B4: 09D11 (antibody, IgG4, V domains shown)
VH: QVQLVESGGGFIQPGGSLRLSCAASGLTFSNYAMTWVRQAPGKGLEWVSTISGGGGNTYYTDSVKGRFTISRDNSKNTLYLQMNSLKAEDTAVYRCAKGLAAALFDYWGQGTLVTVSS
VL: DIVLTQSPDSLPVTPGEPASISCRSSRSLLHSNGHNFLAWYLQKPGQSPHLLIYLGSNRASGVPDRFSGSGSGTDFTLKISRVEAEDVGIYYCMQALQTPITFGQGTRLDIK
B5: 03E05 (antibody, IgG4, V domains shown)
VH: EVKLLESGGDLAQTGGSLRLSCVASGFTFSSYPMSWVRQAPGKGLEWVSAIRRSGATQYADSVKGRFTISRDNSKNTVYLQMNSLRVEDTAVYYCAKGTYDLGQGTLVTVSS
VL: DIVMTQTPLSLPVTLGQPASISCRSSQSLVYSDGNTYLNWFHQRPGQSPRRLIYKVSNRDSGVPDRFSGSGSDTEFTLKISRVEAEDVGVYYCMQATHWPLTFGGGTKVEIK

Biological target: T1, Scrambled Y42,52,63(SO3) PSGL-1(42-62) …
Assay: ELISA, immobilized biotin peptide
Experimental: (§1) A typical ELISA was performed by coating high binding half-well plates (Corning Cat. #3690) with 3 ug/mL/25 ul per well of biotinylated N-terminal PSGL-1 peptides, which incorporated residues 42 to 62 of the protein, in PBS, pH 7.4, overnight at 4° C. The peptide was unmodified or contained sulfated tyrosine at all 3 tyrosine positions (46, 48, and 51) or at one position (tyr51) (Table 7).
(§2) PSGL-1 protein or peptide served as a positive control. […] […] […] For each antibody, duplicate values were averaged and average assay background was subtracted.

A450nm, 20 nM mAb [A450nm] | binding result | Binder
0.03 | no binding (tested: 20 nM) | B1
– | no binding (tested: 20 nM) | B2

Biological target: T2, Biotin Y46,48,51(SO3) PSGL-1(42-62) …
Assay: ELISA, immobilized biotin peptide
Experimental: as §1, §2

A450nm, 20 nM mAb [A450nm] | EC50 [nM] | Binder
2.8 | 0.07 | B3
2.67 | – | B1
2.79 | 0.05 | B4
2.61 | 0.16 | B5
2.72 | – | B2

Biological target: T3, Biotin PSGL-1(42-62) peptide, unmodified
Assay: ELISA, immobilized biotin peptide
Experimental: as §1, §2

EC50 [nM] | A450nm, 20 nM mAb [A450nm] | Binder
~0.05 | – | B3
– | 1.12 | B1
~0.05 | – | B4
6.2 | – | B5
– | 0.26 | B2

Biological target: T11, Cynomolgus PSGL-1(ECD)-hFc1 (cynomolgus macaque)
T11 construct: also called Cyno PSGL1-Fc; Cyno PSGL-1(ECD)-Fc
Assay: ELISA, 20 nM mAb on plate cyno PSGL-1(ECD)-Fc
Experimental: Antibody binding to plate-immobilized cyno PSGL-1(ECD) was determined either at one concentration (20 nM) or by generating full antibody binding curves (0.003-200 nM). A typical ELISA was performed by overnight coating at 4° C. with 3 ug/mL/25 ul per well of recombinant cyno PSGL-1(ECD) protein in PBS, pH 7.4, in high binding half-well plates (Corning Cat. #3690). […] Anti-PSGL-1 IgG in assay buffer (blocking buffer containing 0.05% tween 20) was added into test and control wells (20 nM/25 ul/well) and the plate incubated for 45 min at 37° C. […] The plate was incubated for 45 min at 37° C., and mAb bound to plate-immobilized target determined at A450 nm using HRP substrate (3,3′,5,5′-tetramethylbenzidine (TMB)). For each antibody, duplicate values were averaged and assay background subtracted.

A450nm [A450 nm] | Binder
1.77 | B3
0.78 | B1
2.11 | B4
0.39 | B5
0.83 | B2

Biological target: T12, Human complement C4 protein (Millipore Sigma, Cat. 204886) (human, UniProt P0C0L4 20-675; P0C0L4 680-1446; P0C0L4 1454-1744, limits assumed, natural sulfotyrosines)
T12 construct: mature
T12 sequence (P0C0L4 20-675 limits assumed, form in doubt, chain 1 of 3): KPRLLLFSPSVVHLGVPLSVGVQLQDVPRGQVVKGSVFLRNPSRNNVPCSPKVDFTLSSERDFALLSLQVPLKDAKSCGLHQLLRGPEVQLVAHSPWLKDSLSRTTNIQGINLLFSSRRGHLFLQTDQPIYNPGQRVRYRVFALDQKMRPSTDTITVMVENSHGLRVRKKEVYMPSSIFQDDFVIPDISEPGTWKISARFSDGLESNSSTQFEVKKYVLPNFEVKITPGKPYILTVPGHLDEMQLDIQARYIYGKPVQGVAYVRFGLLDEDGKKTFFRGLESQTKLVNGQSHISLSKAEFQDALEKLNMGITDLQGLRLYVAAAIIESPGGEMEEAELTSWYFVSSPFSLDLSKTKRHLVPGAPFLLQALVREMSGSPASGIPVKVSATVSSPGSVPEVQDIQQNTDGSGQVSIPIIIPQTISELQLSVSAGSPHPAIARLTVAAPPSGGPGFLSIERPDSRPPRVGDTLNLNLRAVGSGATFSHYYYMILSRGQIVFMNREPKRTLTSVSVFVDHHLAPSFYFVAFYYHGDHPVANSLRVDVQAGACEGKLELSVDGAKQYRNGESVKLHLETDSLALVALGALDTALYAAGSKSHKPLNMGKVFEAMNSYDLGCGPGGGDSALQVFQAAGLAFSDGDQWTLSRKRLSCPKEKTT
T12 sequence (P0C0L4 680-1446 limits assumed, form in doubt, chain 2 of 3): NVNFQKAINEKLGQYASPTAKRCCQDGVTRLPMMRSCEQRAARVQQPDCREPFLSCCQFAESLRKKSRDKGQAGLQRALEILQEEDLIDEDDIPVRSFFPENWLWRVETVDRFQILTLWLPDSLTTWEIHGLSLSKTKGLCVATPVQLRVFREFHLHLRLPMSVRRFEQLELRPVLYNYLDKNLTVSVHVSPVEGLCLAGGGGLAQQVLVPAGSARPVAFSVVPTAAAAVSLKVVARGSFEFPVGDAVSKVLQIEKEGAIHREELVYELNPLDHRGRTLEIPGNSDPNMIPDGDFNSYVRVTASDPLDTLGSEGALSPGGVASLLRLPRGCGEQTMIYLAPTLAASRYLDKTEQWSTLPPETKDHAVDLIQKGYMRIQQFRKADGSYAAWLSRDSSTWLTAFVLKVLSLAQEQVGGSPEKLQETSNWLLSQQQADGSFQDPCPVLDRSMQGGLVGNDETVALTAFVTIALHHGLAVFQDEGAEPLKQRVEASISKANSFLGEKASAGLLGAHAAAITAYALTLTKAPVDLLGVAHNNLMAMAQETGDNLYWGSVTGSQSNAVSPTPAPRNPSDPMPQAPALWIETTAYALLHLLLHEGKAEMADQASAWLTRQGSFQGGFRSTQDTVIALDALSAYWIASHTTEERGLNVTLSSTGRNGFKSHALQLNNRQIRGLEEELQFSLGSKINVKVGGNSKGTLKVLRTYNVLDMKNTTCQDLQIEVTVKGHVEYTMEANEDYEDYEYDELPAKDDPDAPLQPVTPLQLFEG
T12 sequence (P0C0L4 1454-1744 limits assumed, form in doubt, chain 3 of 3): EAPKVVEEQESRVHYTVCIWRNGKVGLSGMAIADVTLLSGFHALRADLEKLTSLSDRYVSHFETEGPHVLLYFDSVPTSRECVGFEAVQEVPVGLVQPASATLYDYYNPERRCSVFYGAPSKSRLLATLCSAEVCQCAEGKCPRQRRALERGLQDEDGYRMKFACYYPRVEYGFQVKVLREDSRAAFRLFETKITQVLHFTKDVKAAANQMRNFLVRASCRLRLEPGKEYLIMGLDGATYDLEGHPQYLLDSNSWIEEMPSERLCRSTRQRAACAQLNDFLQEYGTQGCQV
Assay: ELISA, 50 nM mAb
Experimental: (§3) Recombinant PSGL-1-hFc1 chimera protein consisting of PSGL-1's extracellular domain (ECD) served as a positive control. […] Primary antibody was added (25 ul per well) in duplicate at 50 nM in assay buffer (blocking buffer containing 0.05% Tween®20) into test and control (just blocked) wells and the plate incubated for 45 min at 37° C.

binding normalized to PSGL-1 | Binder
0.22 | B3
0.79 | B1
0.32 | B4
0.47 | B5
0.94 | B2

Biological target: T4, Recombinant human PSGL-1(ECD)-hFc1 (R&D …)
Assay: ELISA, 50 nM mAb
Experimental: as §3

A450nm [A450nm] | Binder
1.96 | B3
2.65 | B4
2.28 | B5
2.32 | B2

Biological target: T5, SulfoTyr C4 peptide
Assay: ELISA, 50 nM mAb
Experimental: as §3

binding normalized to PSGL-1 | Binder
0.35 | B3
0.07 | B1
0.05 | B4
0.61 | B5
0.83 | B2

Biological target: T6, Human fibrinogen protein (ThermoFisher, …)
Assay: ELISA, 50 nM mAb
Experimental: as §3

binding normalized to PSGL-1 | binding result | Binder
-0.15 | no binding (tested: 50 nM) | B3
0.17 | – | B1
0.07 | – | B4
0.05 | – | B5
0.2 | – | B2

Biological target: T7, Sulfotyrosine D6 biotin peptide
Assay: ELISA, 50 nM mAb
Experimental: as §3

binding normalized to PSGL-1 | Binder
0.56 | B3
0.11 | B1
0.26 | B4
0.52 | B5
0.75 | B2

Biological target: T8, Sulfotyrosine CCR2b biotin peptide
Assay: ELISA, 50 nM mAb
Experimental: as §3

binding normalized to PSGL-1 | Binder
0.26 | B3
0.63 | B1
0.04 | B4
0.27 | B5

Biological target: T9, SulfoCCK biotin peptide
Assay: ELISA, 50 nM mAb
Experimental: as §3

binding normalized to PSGL-1 | Binder
0.25 | B3
0.63 | B1
0.06 | B4
0.23 | B5
0.58 | B2

Biological target: T10, Sulfotyr fibrinogen γ peptide
Assay: ELISA, 50 nM mAb
Experimental: as §3

binding normalized to PSGL-1 | Binder
0.3 | B3
0.09 | B1
0.09 | B4
0.59 | B5
0.85 | B2
